Assay [1] concerns the target T1, soluble extracellular region of cynomolgus monkey CD38 antigen fused to a 6-His-tag (cynomolgus monkey, UniProt Q5VAN0 45-301).
T1 construct: also called cynomolgus CD38
The experiment in a line: SPR. Background: SPR reads the build-up and loss of mass on a sensor chip optically.

Assay [2] has as its target T2, F4 (peptide-Fc fusion derived from the extracellular domain of human CD38) (human, UniProt P0DOX5 223-449 = IgG part).
T2 construct: As F1; by count CD38 residues 82-94
The experiment in a line: SPR, antibody immobilized, peptide-Fc fusion injected.

Assay [3] addresses T3, F5 (peptide-Fc fusion derived from the extracellular domain of human CD38) (human, UniProt P0DOX5 223-449 = IgG part).
T3 construct: As F1; by count CD38 residues 95-107
The assay is described as above.

The target in assay [4] is T4, F6 (peptide-Fc fusion derived from the extracellular domain of human CD38) (human, UniProt P0DOX5 195-449 = IgG part).
T4 construct: As F1; by count CD38 residues 108-120 (holds M110)
The description is as above.

Assay [5] addresses T5, F7 (peptide-Fc fusion derived from the extracellular domain of human CD38) (human, UniProt P0DOX5 223-449 = IgG part).
T5 construct: As F1; by count CD38 residues 121-133
The assay is described as above.

Assay [6] addresses T6, F8 (peptide-Fc fusion derived from the extracellular domain of human CD38) (human, UniProt P0DOX5 223-449 = IgG part).
T6 construct: As F1; by count CD38 residues 134-146
Described as above.

Assay [7] deals with T7, F9 (peptide-Fc fusion derived from the extracellular domain of human CD38) (human, UniProt P0DOX5 223-449 = IgG part).
T7 construct: As F1; by count CD38 residues 147-159
Described as above.

Assay [8] deals with T8, F10 (peptide-Fc fusion derived from the extracellular domain of human CD38) (human, UniProt P0DOX5 223-449 = IgG part).
T8 construct: As F1; by count CD38 residues 160-172
The assay is described as above.

Assay [9] concerns the target T9, F11 (peptide-Fc fusion derived from the extracellular domain of human CD38) (human, UniProt P0DOX5 223-449 = IgG part).
T9 construct: As F1; by count CD38 residues 173-185
The description is as above.

Assay [10] deals with T10, F14 (peptide-Fc fusion derived from the extracellular domain of human CD38) (human, UniProt P0DOX5 223-449 = IgG part).
T10 construct: As F1; by count CD38 residues 212-224
The description is as above.

For assay [11], the target named is T11, F16 (peptide-Fc fusion derived from the extracellular domain of human CD38) (human, UniProt P0DOX5 223-449 = IgG part).
T11 construct: As F1; by count CD38 residues 238-250
Described as above.

For assay [12], the target named is T12, F18 (peptide-Fc fusion derived from the extracellular domain of human CD38) (human, UniProt P0DOX5 223-449 = IgG part).
T12 construct: As F1; by count CD38 residues 264-276
Described as above.

Assay [13] has as its target T13, F19 (peptide-Fc fusion derived from the extracellular domain of human CD38) (human, UniProt P0DOX5 223-449 = IgG part).
T13 construct: As F1; by count CD38 residues 277-289
Described as above.

The target of assay [14] is T14, soluble extracellular region of human CD38 fused to a 6-His-tag (human, UniProt P28907 43-300).
T14 construct: Expressed with the murine VJ2C leader; also called human CD38 protein; human CD38 antigen
The experiment in a line: SPR, equilibrium response, antibody captured on protein G.

For assay [15], the target named is T15, F1 (peptide-Fc fusion derived from the extracellular domain of human CD38) (human, UniProt P0DOX5 223-449 = IgG part).
T15 construct: 13-residue peptide fused to human IgG1 Fc (CH2-CH3) with an Ala-Ser linker; by count CD38 residues 43-55
The experiment in a line: SPR, human 767 antibody immobilized on the chip, peptide-Fc fusion injected.

Assay [16] addresses T16, F2 (peptide-Fc fusion derived from the extracellular domain of human CD38) (human, UniProt P0DOX5 223-449 = IgG part).
T16 construct: As F1; by count CD38 residues 56-68
The description is as above.

For assay [17], the target named is T17, F12 (peptide-Fc fusion derived from the extracellular domain of human CD38) (human, UniProt P0DOX5 223-449 = IgG part).
T17 construct: As F1; by count CD38 residues 186-198
The assay is described as above.

Assay [18] concerns the target T18, F13 (peptide-Fc fusion derived from the extracellular domain of human CD38) (human, UniProt P0DOX5 223-449 = IgG part).
T18 construct: As F1; by count CD38 residues 199-211
The assay is described as above.

The target in assay [19] is T19, F15 (peptide-Fc fusion derived from the extracellular domain of human CD38) (human, UniProt P0DOX5 223-449 = IgG part).
T19 construct: As F1; by count CD38 residues 225-237
Described as above.

The target in assay [20] is T20, F17 (peptide-Fc fusion derived from the extracellular domain of human CD38) (human, UniProt P0DOX5 223-449 = IgG part).
T20 construct: As F1; by count CD38 residues 251-263
The description is as above.

For assay [21], the target named is T21, F20 (peptide-Fc fusion derived from the extracellular domain of human CD38) (human, UniProt P0DOX5 223-449 = IgG part).
T21 construct: Final peptide of 11 amino acids, else as F1; by count CD38 residues 290-300
The description is as above.

Assay [22] concerns the target T22, F3 (peptide-Fc fusion derived from the extracellular domain of human CD38) (human, UniProt P0DOX5 223-449 = IgG part).
T22 construct: As F1; by count CD38 residues 69-81; also called F3 construct
The experiment in a line: SPR, antibody immobilized on the chip, peptide-Fc fusion injected (1000 nM per paragraph 238).

Usually Kd stands for the constant that tells how readily two partners part at equilibrium.

B1: human 767 antibody (antibody, human IgG1, kappa, V domains shown)
VH: QVQLVESGGGLVQPGGSLRLSCAASGFTFSSYWMSWVRQAPGKGLEWVANIKQDGSEKYYVDSVKGRFTISRDNAKNSLYLQMNSLRAEDTAVYYCAREGRTGYFDYWGQGTLVTVSS
VL: QSVLTQPPSASGTPGQRVTISCSGSTSNIGTNYVYWYQQLPGTAPKLLIYRNDQRPSGVPDRFSGSKSGTSASLAISGLRSEDEADYYCAAWDDSRSGVYAFGTGTKVTVLR
notes: Human IgG1
As to B1, the Kd in assay [1] was roughly 1200 nM; in [14] it was roughly 300 nM. The binding result in assay [2], in assay [3], in [4], in assay [5], in [6] and in [7] was “no binding (tested: 1000 nM)” throughout. The binding result in assay [8], in assay [9], in assay [10], in [11], in assay [12] and in assay [13] was “no binding (tested: 1000 nM)” each time. In addition, the binding result in assay [15], in assay [16], in [17], in assay [18], in assay [19] and in assay [20] was “no binding” each time. Further, the binding result in [21] is listed as “no binding”; in assay [22], “binds”.

The values are drawn from US20190135918A1 (ICHNOS SCIENCES, published 2019).
